# Laboratory results from article PMC7961821, “Comparing Ligninolytic Capabilities of Bacterial and Fungal Dye-Decolorizing Peroxidases and Class-II Peroxidase-Catalases” (International Journal of Molecular Sciences, 2021).
# B1: AspDyP2 (Amycolatopsis sp. ATCC 39116) (protein)
# chain: MPVDLSTTLSWKSATGEAATMLDELQPNILKAHVRDRLTVLFLGFGDAAEARTFLNGLSGLMKSARTHLQEVEAHKLTKAVGTPYLGVGLTAHGYATLGVTAPADPSFTAGAKAAVEKLADPAVTEWEGHYQQTIDAVLLLGDATAGPVRTLRRQVEALRPASVTVVGEESGLGLANANGDGIEHFGYVDGRSQPLFLTEDVDAERDTTDGVNDWDPSAPLEQVLVPDPAAPDPTVHFGSYFVFRKLEQNVRLFKEAERDLAHDLGLRGEDRERAGAMLVGRFEDGTPLTAQSAPGSHHPVGNDFSYDSDKLGQKCPFHAHIRKTNPRGSGGAEAPEEERKHLMARRGQTYGRRHDDPNADLPPRLRPAKDVGLLFMAFNSNLGNQFEFTQQIWANNPAFPFPPDGSQPGLDPVIGQGARAPQKYAPEWGHNNVAEATDPIPQAVTMKGGEYFFMPSLAFLRSL
# notes: mature protein, codon-optimised, N-terminal His tag (pET28a), soluble from E. coli BL21(DE3) pLysS, heme enzyme
# B2: TcuDyP (Thermomonospora curvata DSM 43183) (protein)
# chain: SEERAAGARPSATQTTGTATEPFHGPHQAGIATPPQAHAVFLGLDLRKGTGRKELGRLMRLLTDDARRLTQGRPALADPEPDLAPLPSRLTFTFGFGPGLFKAAGLEKQRPEGLRPLPPFKVDRLEDRWSGGDLLVQICCDDPITLAHALRMTVKDARAFTRVRWVQRGFRRSPGVQSSGATQRNLMGQLDGTVNPVPGTADFDQAVWVQDGPEWLRGGTTLVLRRIRMELEKWDEADPAGKEFAVGRRLTSGAPLTGRHEHDEPDFDAVDSAGFPVIAENAHIRLAHVDSPRLRMLRRPYNYDEGLTADGRSDAGLLFAAYQADIDRQFIPVQRRLDEGGDLLNLWTTPIGSAVFAIPPGCDENGWIGQGLLG
# notes: mature protein without signal peptide, codon-optimised, N-terminal His tag (pET28a), soluble from E. coli BL21(DE3) pLysS, heme enzyme
# B3: AauDyP (Auricularia auricula-judae) (protein)
# chain: ATSLNTDDIQGDILVGMHKQKQLFYFFAINDPATFKTHLASDIAPVVASVTQLSNVATQPLVALNIAFSNTGLLALGVTDNLGDSLFANGQAKDATSFKESTSSWVPQFAGTGIHGVIILASDTTDLIDQQVASIESTFGSSISKLYSLSASIRPGNEAGHEMFGFLDGIAQPAINGFNTPLPGQNIVDAGVIITGATNDPITRPSWAVGGSFLAFRQLEQLVPEFNKYLLDNAPAGSGSLQARADLLGARMVGRWKSGAPIDLTPTADDPALGADAQRNNNFTYSHAGFDLGSDQSHCPFSAHIRKTRPRADLGGSLTPPNLSAGANSIMRSGIPYGPEVTSAESASNTTTQERGLAFVAYQAQLSQGFHFLQQTWADNANFPPGKTPATVGLDPIIGQNNGQPRVVNGLLPSNSSASLSIPQFVVSHGGEYFFSPPISAIGGRLSA
# notes: heme enzyme
# B4: PerVPL (Pleurotus eryngii) (protein)
# chain: ATCDDGRTTANAACCILFPILDDIQENLFDGAQCGEEVHESLRLTFHDAIGFSPTLGGGGADGSIIAFDTIETNFPANAGIDEIVSAQKPFVAKHNISAGDFIQFAGAVGVSNCPGGVRIPFFLGRPDAVAASPDHLVPEPFDSVDSILARMGDAGFSPVEVVWLLASHSIAAADKVDPSIPGTPFDSTPGVFDSQFFIETQLKGRLFPGTADNKGEAQSPLQGEIRLQSDHLLARDPQTACEWQSMVNNQPKIQNRFAATMSKMALLGQDKTKLIDCSDVIPTPPALVGAAHLPAGFSLSDVEQACAATPFPALTADPGPVTSVPPVPGS
# notes: heme enzyme
# B5: PchLiPA (Phanerodontia chrysosporium) (protein)
# chain: ATCSNGKTVGDASCCAWFDVLDDIQQNLFHGGQCGAEAHESIRLVFHDSIAISPAMEAQGKFGGGGADGSIMIFDDIETAFHPNIGLDEIVKLQKPFVQKHGVTPGDFIAFAGRVALSNCPGAPQMNFFTGRAPATQPAPDGLVPEPFHTVDQIINRVNDAGEFDELELVWMLSAHSVAAVNDVDPTVQGLPFDSTPGIFDSQFFVETQLRGTAFPGSGGNQGEVESPLPGEIRIQSDHTIARDSRTACEWQSFVNNQSKLVDDFQFIFLALTQLGQDPNAMTDCSDVIPQSKPIPGNLPFSFFPAGKTIKDVEQACAETPFPTLTTLPGPETSVQRIPPPPGA
# notes: heme enzyme
# Assays:
# Test in all cases: purified protein
# purified protein [1] = substrate: COc1cc(C(O)C(CO)Oc2ccccc2OC)ccc1O; conditions: 1 mM H2O2, 100 mM tartrate, pH 3, 25 °C, pH 3.0
# purified protein [2] = substrate: COc1cccc(OC)c1O
# purified protein [3] = substrate: Nc1c(S(=O)(=O)O)cc(Nc2cccc(S(=O)(=O)CCOS(=O)(=O)O)c2)c2c1C(=O)c1ccccc1C2=O; conditions: 1 mM H2O2, optimal pH (not given for RB19), 25 °C
# purified protein [4] = substrate: CCn1c(=NN=c2sc3cc(S(=O)(=O)O)ccc3n2CC)sc2cc(S(=O)(=O)O)ccc21; format: biochemical, Amycolatopsis sp. ATCC 39116; conditions: 1 mM H2O2, pH 5, 25 °C
# purified protein [5] = substrate: CCn1c(=NN=c2sc3cc(S(=O)(=O)O)ccc3n2CC)sc2cc(S(=O)(=O)O)ccc21; format: biochemical, Thermomonospora curvata; conditions: 1 mM H2O2, pH 3, 25 °C
# purified protein [6] = substrate: COc1ccc(C(O)C(CO)Oc2ccccc2OC)cc1OC; format: biochemical, Auricularia auricula-judae; conditions: 1 mM H2O2, 100 mM tartrate, pH 3, 25 °C
# purified protein [7] = substrate: COc1ccc(C(O)C(CO)Oc2ccccc2OC)cc1OC; format: biochemical, Pleurotus eryngii; conditions: 1 mM H2O2, 100 mM tartrate, pH 3, 25 °C
# purified protein [8] = substrate: COc1ccc(C(O)C(CO)Oc2ccccc2OC)cc1OC; format: biochemical, Phanerodontia chrysosporium; conditions: 1 mM H2O2, 100 mM tartrate, pH 3, 25 °C
protein,measurement,setting,value
B1,Km,purified protein [1],179 ± 39 µM
same,kcat,purified protein [1],12.0 ± 1.2 s⁻¹
same,kcat/Km,purified protein [1],67000 ± 8500 M⁻¹ s⁻¹
same,Km,"purified protein [2]; 1 mM H2O2, pH 4, 25 °C, pH 4.0",177 ± 34 µM
same,kcat,"purified protein [2]; 1 mM H2O2, pH 4, 25 °C, pH 4.0",94.0 ± 4.6 s⁻¹
same,kcat/Km,"purified protein [2]; 1 mM H2O2, pH 4, 25 °C, pH 4.0",530000 ± 80000 M⁻¹ s⁻¹
same,Km,purified protein [3],20 ± 4 µM
same,kcat,purified protein [3],26.0 ± 2.0 s⁻¹
same,kcat/Km,purified protein [3],1.3e+06 ± 200000 M⁻¹ s⁻¹
same,Km,purified protein [4],165 ± 18 µM
same,kcat,purified protein [4],30.0 ± 0.9 s⁻¹
same,kcat/Km,purified protein [4],180000 ± 20000 M⁻¹ s⁻¹
B2,Km,purified protein [1],80 ± 16 µM
same,kcat,purified protein [1],1.1 ± 0.1 s⁻¹
same,kcat/Km,purified protein [1],14200 ± 1800 M⁻¹ s⁻¹
same,Km,"purified protein [2]; 1 mM H2O2, pH 3, 25 °C, pH 3.0",2 ± 0.3 µM
same,kcat,"purified protein [2]; 1 mM H2O2, pH 3, 25 °C, pH 3.0",2.7 ± 0.4 s⁻¹
same,kcat/Km,"purified protein [2]; 1 mM H2O2, pH 3, 25 °C, pH 3.0",1.3e+06 ± 100000 M⁻¹ s⁻¹
same,Km,purified protein [3],7 ± 2 µM
same,kcat,purified protein [3],1.3 ± 0.1 s⁻¹
same,kcat/Km,purified protein [3],200000 ± 40000 M⁻¹ s⁻¹
same,Km,purified protein [5],309 ± 95 µM
same,kcat,purified protein [5],53.0 ± 6.1 s⁻¹
same,kcat/Km,purified protein [5],170000 ± 30000 M⁻¹ s⁻¹
B3,Km,purified protein [6],448 ± 59 µM
same,kcat,purified protein [6],0.3 ± 0.01 s⁻¹
same,kcat/Km,purified protein [6],700 ± 100 M⁻¹ s⁻¹
B4,Km,purified protein [1],206 ± 17 µM
same,kcat,purified protein [1],2.7 ± 0.1 s⁻¹
same,kcat/Km,purified protein [1],13200 ± 700 M⁻¹ s⁻¹
same,Km,purified protein [7],659 ± 80 µM
same,kcat,purified protein [7],1.2 ± 0.1 s⁻¹
same,kcat/Km,purified protein [7],1800 ± 100 M⁻¹ s⁻¹
B5,Km,purified protein [1],208 ± 41 µM
same,kcat,purified protein [1],1.3 ± 0.1 s⁻¹
same,kcat/Km,purified protein [1],6500 ± 700 M⁻¹ s⁻¹
same,Km,purified protein [8],88 ± 3 µM
same,kcat,purified protein [8],1.3 ± 0.2 s⁻¹
same,kcat/Km,purified protein [8],14700 ± 400 M⁻¹ s⁻¹
